# B1: TPR t1 (parent)
# chain: GACCAAUCUGCCCUCAGAGCUCGAGAACAUCUUCGGAUGCAGAGGAGGCAGGCUUCGGUGGCGCGAUAGCGCCAACGUCCUCAACCUCCAAUGCAUCCCACCACAUGAUGAUGCCUGAAGAGCCUUGGUUUUUUG
# Variants of: B1
# Assay: polymerase ribozyme fitness, log enrichment relative to wild type (log ratio); higher = more active; in vitro selection for triplet polymerase activity
# Procedure, shortened: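 One round of in vitro selection, in triplicate, was applied to PCR-built, transcribed mutant libraries of each subunit of a heterodimeric triplet polymerase ribozyme. The steps were annealing with a biotinylated primer, partner subunit and triplets, incubation frozen at −7 °C, gel excision of extended constructs, streptavidin-bead capture and RT-PCR. Fitness is the logarithm, base 2, of genotype enrichment over wild-type enrichment from inverse-variance-weighted replicate averages of Illumina-sequenced inputs and outputs, keeping genotypes with ≥10 input reads and ≥1 read per output.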
row,Variant,polymerase ribozyme fitness (log ratio)
1,A43U G58U U126G,-3.62
2,G42U C88G C101A G120C,-3.53
3,G44U G127C,-2.57
4,A43G G61A U78C G117U,-4.59
5,G45A C99A,-6.7
6,G44C U125A,-1.22
7,G44A G48C C56A,-1.29
8,A43U C56G G71U G120A,-4.58
9,A43G G63A A121G U129A,-3.06
10,A43U G71A,-2.46
11,G45A C56A,-0.425
12,A43U G44C G63A,-2.96
13,G42U C62U C64U A84G,-4.19
14,A43G C82G U87C G93U,-6.73
15,A43C G61C,-5.34
16,A43C G61U,-2.24
17,G44U G58C C62A,-2.17
18,A43C U129G,-3.27
19,G44C A46G,-0.686
20,A43G G44C A46U G63C G120A,-5.64
21,G45A A50U C124U U125G,-0.0022
22,G42U G47U C123G,-1.61
23,G44U U96A,-2.64
24,A43G U109A,-6.81

row,Variant,polymerase ribozyme fitness (log ratio)
1,A43C U59C C80A,-6.52
2,G44A C49U G71A G117C U133G,-5.02
3,G42U G45C C70U A83G,-5.2
4,G44C G69U U78C A95U C101U,-0.81
5,G42U U78C C94G A100C,-4.78
6,G44U G71A U130A,-2.12
7,A43U G44U G48A G122A,-2.63
8,G42U G48A G110C A111G,-6.19
9,A43C C56U U78C U125A,-3.15
10,G44U C56A G57A C104U U106G,-2.38
11,A43U C94A,-1.82
12,A43C A46U,-2.91
13,G44U U55A,-0.917
14,G44C G127A U130G,-2.95
15,A43U G45U C115G,-3.44
16,A43G C114G G135U,-3.37
17,G45A G47U A66U C73A C82U,-3.27
18,G44U U59C G110A G127A U132A,-4.19
19,G44U G71U C104U U106A,-1.53
20,A43U C56A,-1.69
21,A43G C56U U109A G117U,-5.89
22,G44C C88U,-0.458
23,G45A C49A C94U G110A C124G,-1.89
24,A43U C70A,-3.22

row,Variant,polymerase ribozyme fitness (log ratio)
1,A43C C64U,-1.64
2,G44U C70A,-2.87
3,G44A G60C,0.513
4,G44A C89U C104A U106A,-2.1
5,A43G U55C C64U C72G,-2.14
6,G44C G63C A91G,-2.62
7,G44A G71A A91G U116A G122A C124U,-4.96
8,A43G C80A C115G,-7.29
9,G44A U59A G63A C89G C115A C124A U129A,-5.52
10,G44A U55A C70A,-3.95
11,G42U G52C U55A,-2.16
12,G45A A103U,-7.16
13,G44A A103G A105U G117A,-6.51
14,G44U C72U C115U U129G,-4.96
15,A43U G47C U92C G93C A121G,-0.371
16,G44C G71A C82U A83C,-2.53
17,G44U C64G,-7.29
18,G44C C99U G110A,-6.64
19,A43C G61U C123G,-1.3
20,G44U G45C U78C,-3.51
21,G44U A95U G117C,-4.64
22,A43U C56A C85G,-3.95
23,G45A C53G,-0.662
24,A43G U55C C62U U109A G135C,-5.8

row,Variant,polymerase ribozyme fitness (log ratio)
1,G45A A50C G63A C82G G117C,-6.01
2,G44U G60A,-0.946
3,G44A A46U C85U C86G,-4.71
4,G44U C49A G77U G120C U130G,-2.08
5,G44U G120U U130G,-1.7
6,A43U G113A,-1.27
7,G44U C53G G61C G93A,-2.01
8,A43U A46G U106A,-2.63
9,G44A C53U,-2.11
10,G42U G47A,-1.67
11,A43C G57U G77U,-2.72
12,A43U G48U G61A,-1.54
13,A43G G57U C88A C104A G120U,-5.76
14,G42U C124G G135C,0.643
15,G44C C53U C76U,-1.48
16,G44A G120U,-1.14
17,G44A G120C,0.014
18,G44C C102G A108C C114G G122A,-6.67
19,G44U U54G C76A,-1.81
20,G44U G60U C94U,-0.792
21,A43U C86U,-2.52
22,G44C C102A,-3.4
23,G42U U106A G120C,-2.14
24,A43U G60U C64G C73G C85U C98G C115U,-6.57

row,Variant,polymerase ribozyme fitness (log ratio)
1,G44C U54A G61U C85U U87A C102A,-4.76
2,G44U A74U C88A U133G,-2.41
3,G42U C124U,-0.586
4,G44C C73U,-0.621
5,A43C C114U G122A,-3.24
6,A43C G48C C72G C102G,-7.62
7,G44A G61U,-0.0446
8,A43G G52C C53A G61A U96C,-2.66
9,G44A C64U,-1.11
10,G44U C56A,-1.54
11,A43G C56G C82A A84C C114U,-3.15
12,A43U G44A C115A C124A U125C U132A,0.582
13,G45A C62A U112G C115G,-3.1
14,G44C U92G U112C,-0.938
15,A43U G93C G117A,-4.2
16,G42U C102A,-5.37
17,A43U C102A C114A,-5.12
18,G44A G63A,-2.44
19,A43C C62U A84G,-5.86
20,A43G A84U,-1.9
21,G42U G120U,-1.31
22,G44A G52U G122A C123U C124G U130G,-1.46
23,G42U C80U,-2.21
24,G44A C88U,-1.23

row,Variant,polymerase ribozyme fitness (log ratio)
1,G44A C56A C89U C97U U116A,-3.63
2,G45A C70G G110C,-6.17
3,G44U A50U,-2.28
4,G42U C73A G127A,-2.84
5,A43U G60U C82A G113A G128C,-4.46
6,G44C C56U C79A C101U,-2.56
7,G44U A68G C85A,-5.43
8,G44U C56G U92A C115A,-4.27
9,G44A C49A C85G C94A,-3.35
10,G45A C80A C115A,-3.93
11,G44U A95G C99U,-4.84
12,A43U G110A,-3.03
13,G44U G107A,-6.9
14,G45A C123G,0.984
15,A43U U54A C73U G77C,-1.92
16,G42U G61U U92A C94A,-3.57
17,A43C A46C C62U U87A C101U,-2.85
18,G44U U59G,-0.461
19,G44U C89G,-0.509
20,A43G U54C C88U,-1.48
21,G44A G113A U130C,-2.43
22,G42U G60A,-2.16
23,G44U C53G G61C U81G C102U U132A,-3.53
24,G44U C123U,0.929

row,Variant,polymerase ribozyme fitness (log ratio)
1,G44U A46G C62U C94G,-4.05
2,G44C A50C G60U,-1.12
3,G45A C79G G107A,-7.38
4,G44A C70U C89A A100U U133C,-3.92
5,A43C G51U C82G A121U,-6.24
6,G44U U54C C64U C102U G113A G128U,-6.53
7,G45A C49A C72G G128A,-3.14
8,G44A U96G,-2.12
9,G44C G63U C79U,-1.08
10,G44U U59G G120A,0.601
11,G42U G110U,-3.71
12,A43G A100U,-2.72
13,G44U C53A C70A,-2.06
14,G45A C72U G110C,-4.39
15,A43U A46G U55G,-1.34
16,A43C C101G A121U,-2.62
17,G42U G45A G110C,-5.34
18,G45A C115A,-1.15
19,G44C G48U C53A G61C U112G,-6.03
20,G44C G61A A84C,-0.524
21,A43C U125G,-2.24
22,G45A C73U C88A U112C G122U,0.105
23,G42U C56U C86U,-1.14

# — the RNAGym collection of RNA variant scans (doi:10.1073/pnas.2313332121)
